Substitutions are numbered along the chain they refer to. Names and notes keep the numbering of the source.
T1: His-tagged CEACAM1 (human, UniProt P13688 35-428)
T1 construct: 45 kDa SPR analyte; also called CEACAM1-HIS; CEACAM1 analyte
T1 sequence: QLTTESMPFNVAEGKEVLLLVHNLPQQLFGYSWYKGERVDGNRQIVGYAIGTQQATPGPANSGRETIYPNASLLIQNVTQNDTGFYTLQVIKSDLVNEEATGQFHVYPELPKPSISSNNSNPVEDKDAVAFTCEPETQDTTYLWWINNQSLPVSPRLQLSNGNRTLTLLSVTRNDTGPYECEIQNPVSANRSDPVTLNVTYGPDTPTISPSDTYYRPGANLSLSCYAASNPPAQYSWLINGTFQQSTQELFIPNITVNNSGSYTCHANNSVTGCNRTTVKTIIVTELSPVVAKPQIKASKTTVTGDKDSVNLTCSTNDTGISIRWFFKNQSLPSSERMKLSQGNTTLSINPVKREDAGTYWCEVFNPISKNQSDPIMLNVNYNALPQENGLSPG

T2: CEACAM3 (recombinant protein) (human, UniProt P40198 35-155, limits assumed)
T2 construct: construct not described
T2 sequence (looked up): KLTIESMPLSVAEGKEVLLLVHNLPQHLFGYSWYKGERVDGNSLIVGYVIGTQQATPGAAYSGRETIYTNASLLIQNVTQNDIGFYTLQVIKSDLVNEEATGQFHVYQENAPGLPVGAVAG

T3: CEACAM6 (recombinant protein) (human, UniProt P40199 35-320)
T3 construct: construct not described
T3 sequence (looked up): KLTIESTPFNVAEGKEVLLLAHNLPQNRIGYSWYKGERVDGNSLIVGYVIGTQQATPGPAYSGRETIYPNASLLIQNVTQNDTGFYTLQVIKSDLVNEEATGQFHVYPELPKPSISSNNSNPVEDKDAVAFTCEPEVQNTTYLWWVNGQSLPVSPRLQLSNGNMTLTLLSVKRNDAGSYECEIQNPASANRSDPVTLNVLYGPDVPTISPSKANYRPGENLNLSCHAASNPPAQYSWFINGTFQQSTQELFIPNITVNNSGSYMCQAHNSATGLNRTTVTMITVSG

B1: VH1/Vκ8 S29A (antibody, IgG4, V domains shown)
VH: EVQLLESGGGLVQPGGSLRLSCAASGFIFSSHGMSWVRQAPGKGLEWVATISSGGTYTYYPDSVKGRFTISRDNSKNTLYLQMNSLKAEDTAMYYCARHDFDYDAAWFAYWGQGTLVTVSS
VL: EIVLTQSPATLSLSPGERATLSCRANSAVSYMYWYQQKPGQAPRPWIYLTSNRATGVPARFSGSGSGTDYTLTISSLEPEDFAVYYCQQWSSNPPTFGQGTKLEIK
notes: IgG4 (S241P), kappa; also called Parent; Parent (VH1/Vκ8 S29A)
B2: CP08H03/CP08F05 (antibody, V domains shown)
VH: B1 VH with D104F, A105P, A106Y, Y110H
VL: B1 VL with S91T
notes: IgG4 (S241P), kappa
B3: CP08H03/Vκ8 S29A (antibody, IgG4, V domains shown)
VH: B1 VH with D104F, A105P, A106Y, Y110H
VL: B1 VL
notes: IgG4 (S241P), kappa; also called CP08_H03/Parent VL; CP08_H03/Parental
B4: chimeric antibody VH0/Vκ0 (antibody, IgG4, V domains shown)
VH: B1 VH with L5V, G10D, Q13K, R19K, S21A, A40T, G42D, G44R, S75D, A88S
VL: QIVLTQSPALMSASPGVKVTMTCSANSSVSYMYWYRQKPRSSPKPWIYLTSNLASGVPARFSGSGSGTSYSLTISSMEAEDAATYYCQQWSSNPPTFGSGTKLEIK
notes: IgG4 (S241P), kappa; also called VH0/Vκ0 (control); Chimeric VH0/Vκ0

biological target: T1, His-tagged CEACAM1; experiment: SPR single-cycle, purified IgG captured
Procedure, shortened: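 Purified IgG was captured on a Series S Protein A chip in a Biacore T200 at 25° C in HBS-P+ (pH 7.4), with His-tagged CEACAM1 as the analyte in single-cycle kinetics surface plasmon resonance. Kon, koff and Kd were fitted from signals corrected for the reference channel and blank runs, and relative KD was calculated against the parent antibody tested alongside.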

Kd	koff	kon	relative KD to parent	Binder
480 nM	0.19 s⁻¹	400000 M⁻¹ s⁻¹	1	B1
95 nM	0.0069 s⁻¹	73000 M⁻¹ s⁻¹	5	B2
120 nM	0.0075 s⁻¹	63000 M⁻¹ s⁻¹	4	B3

biological target: T1, His-tagged CEACAM1; experiment: SPR single-cycle, supernatant IgG captured
Procedure, shortened: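 IgG came from supernatants of HEK EBNA cells transiently transfected by PEI in 6-well plates and harvested 5-7 days later. Supernatants were quantified by ELISA and filtered. Single-cycle surface plasmon resonance was run on a Biacore T200 at 25° C in HBS-P+ (pH 7.4), with IgG captured on Protein A and His-tagged CEACAM1 as analyte. Kon, koff and Kd were fitted, and relative KD was calculated against the parent antibody assayed in the same experiment.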

Kd	koff	kon	relative KD to parent	Binder
550 nM	0.053 s⁻¹	96000 M⁻¹ s⁻¹	1	B1
110 nM	0.0074 s⁻¹	70000 M⁻¹ s⁻¹	5.2	B2
130 nM	0.0085 s⁻¹	65000 M⁻¹ s⁻¹	4.2	B3

biological target: T2, CEACAM3 (recombinant protein); experiment: SPR single-cycle kinetics, antibody captured on Protein A, CEACAM-3 injected at three rising concentrations
Procedure: (§1) In order to assess the binding of the humanized, affinity matured reformatted lead IgGs, single-cycle kinetics analysis was performed on crude supernatants using a Biacore T200 running Biacore T200 Control Software V2.0.1 and Biacore T200 Evaluation Software V3.0. Antibodies were diluted in HBS-P+ to a final concentration of 0.5 μg/ml. At the start of each cycle, antibodies were loaded onto Fc2, Fc3 and Fc4 of the Protein A chip. IgGs were captured at a flow rate of 10 μl/min to give an immobilisation level (RL) of ˜100 RU (a level calculated to obtain a Rₘₐₓ of ˜50-150 RU once the analyte is bound). The surface was then allowed to stabilize. Single-cycle kinetics data was obtained with CEACAM1 as the analyte at a flow rate of 80 μl/min to minimize any potential mass transfer effects. Multiple repeats with the parent (VH1/Vκ8 S29A) antibody were performed to check the stability of the surface and analyte over the kinetic cycles. The signal from the reference channel Fc1 (no antibody) was subtracted from that of Fc2, Fc3 and Fc4 to correct for differences in non-specific binding to the reference surface. A three point, two-fold dilution range from 70 nM to 280 nM CEACAM1 without regeneration between each concentration was used. The signal from each antibody blank run (no CEACAM1) was subtracted to correct for differences in surface stability. The association phase for the three injections of increasing concentrations of CEACAM1 was monitored for 80 seconds each time and a single dissociation phase was measured for 150 seconds following the last injection of CEACAM1. Regeneration of the Protein A surface was conducted using two injections of 10 mM glycine-HCL pH 1.5 followed by a stabilization period of 250 seconds.
(§2) To further assess the binding selectivity of CEACAM1 antibodies VH0/Vκ0, CP08H03/Vκ8 S29A, CP08H03/CP08F05 CEACAM1 over other proteins, binding affinities to CEACAM1, CEACAM3, CEACAM5, and CEACAM6 were compared using single-cycle kinetics analysis performed as described above. Single cycle kinetics was conducted using CEACAM concentrations from 280 nM to 70 nM.

binding result	Binder
no binding	B4
no binding	B2
no binding	B3

biological target: T3, CEACAM6 (recombinant protein); experiment: SPR single-cycle kinetics, antibody captured on Protein A, CEACAM-6 injected at three rising concentrations [Cont.]
Procedure: as §1, §2

binding result	Binder
no binding	B4
no binding	B2
no binding	B3

Reference: patent US20250074980A1 (BRIGHAM AND WOMEN S HOSPITAL, published 2025)
